Experimental data taken from patent US20120021972A1 (CADILA HEALTHCARE, published 2012).
Each block holds one binder with its values, some of them ahead of it. Starred links: 1 amine or outer side, 2 acyl side, 3 side chain; linkers in the order of their positions; H or OH if unused. Non-standard residues stand in square brackets, D forms with d. No end group written: not given here. *: point of attachment. AMCB = 2-amino-5-(4-chloro-2-methylphenyl)pentanoic acid, Cc1cc(Cl)ccc1CCC[C@H](N[*:1])C(=O)[*:2]; Bip(2'-Et-4'-OMe) = CCc1cc(OC)ccc1-c1ccc(C[C@H](N)C(=O)O)cc1; Leu(5,5,5,5',5',5'-F6) = N[C@@H](CC(C(F)(F)F)C(F)(F)F)C(=O)O; 2F‑APPA = 2-amino-5-(2-fluorophenyl)pentanoic acid; αMePhe(2-F) = C[C@](N)(Cc1ccccc1F)C(=O)O; hhPhe = N[C@@H](CCCc1ccccc1)C(=O)O; aThr = C[C@H](O)[C@H](N)C(=O)O; CNB = not defined here; Aib = CC(C)(N)C(=O)O; Moc = COC(=O)*

Experiments:
human GLP-1 receptor = human GLP-1 receptor (human, UniProt P43220 24-463); assay: cell-based or functional assay
human GLP-1 receptor, sequence (P43220 24-463): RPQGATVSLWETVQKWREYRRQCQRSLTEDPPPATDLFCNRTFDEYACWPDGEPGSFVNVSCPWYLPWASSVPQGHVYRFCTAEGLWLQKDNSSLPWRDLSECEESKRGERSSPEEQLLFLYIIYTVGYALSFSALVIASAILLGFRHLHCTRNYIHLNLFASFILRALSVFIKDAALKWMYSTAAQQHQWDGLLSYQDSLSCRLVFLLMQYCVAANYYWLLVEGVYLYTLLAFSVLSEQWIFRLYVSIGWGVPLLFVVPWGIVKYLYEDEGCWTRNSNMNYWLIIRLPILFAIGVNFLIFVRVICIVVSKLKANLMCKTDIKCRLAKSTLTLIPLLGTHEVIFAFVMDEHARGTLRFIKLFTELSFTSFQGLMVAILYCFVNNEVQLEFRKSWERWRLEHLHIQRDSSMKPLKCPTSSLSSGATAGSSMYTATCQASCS

human glucagon receptor = human glucagon receptor (human, UniProt P47871 26-477); assay: cell-based or functional assay

cAMP release, % activity, 1 nM (human GLP-1 receptor): 96%
cAMP release, % activity, 10 nM (human GLP-1 receptor): 99%
cAMP release, % activity, 100 nM (human GLP-1 receptor): 99%
cAMP release, % activity, 1 µM (human GLP-1 receptor): 99%
cAMP release, % activity, 10 µM (human GLP-1 receptor): 99%
inhibition of cAMP production, 1 nM (human glucagon receptor): 21 pmol/ml/µg prt
inhibition of cAMP production, 10 nM (human glucagon receptor): 19 pmol/ml/µg prt
inhibition of cAMP production, 100 nM (human glucagon receptor): 18 pmol/ml/µg prt
inhibition of cAMP production, 1 µM (human glucagon receptor): 18 pmol/ml/µg prt
inhibition of cAMP production, 10 µM (human glucagon receptor): 16 pmol/ml/µg prt
B1: Seq. ID. No. 237: H-Aib-(Hfl)-GT-(α-Me-2F-Phe)-TSD-Bip(OMe)-(AMCB) (peptide)
peptide: H[Aib][Leu(5,5,5,5',5',5'-F6)]GT[αMePhe(2-F)]TSD[Bip(2'-Et-4'-OMe)][AMCB]

cAMP release, % activity, 1 nM (human GLP-1 receptor): 38%
cAMP release, % activity, 10 nM (human GLP-1 receptor): 77%
cAMP release, % activity, 100 nM (human GLP-1 receptor): 85%
cAMP release, % activity, 1 µM (human GLP-1 receptor): 94%
cAMP release, % activity, 10 µM (human GLP-1 receptor): 97%
inhibition of cAMP production, 1 nM (human glucagon receptor): 18 pmol/ml/µg prt
inhibition of cAMP production, 10 nM (human glucagon receptor): 16 pmol/ml/µg prt
inhibition of cAMP production, 100 nM (human glucagon receptor): 12 pmol/ml/µg prt
inhibition of cAMP production, 1 µM (human glucagon receptor): 8 pmol/ml/µg prt
inhibition of cAMP production, 10 µM (human glucagon receptor): 6 pmol/ml/µg prt
B2: Seq. ID. No. 40: H-Aib-QGT-(α-Me-2F-Phe)-TSD-Bip(OMe)-(AMCB) (peptide)
peptide: H[Aib]QGT[αMePhe(2-F)]TSD[Bip(2'-Et-4'-OMe)][AMCB]

cAMP release, % activity, 1 nM (human GLP-1 receptor): 38%
cAMP release, % activity, 10 nM (human GLP-1 receptor): 77%
cAMP release, % activity, 100 nM (human GLP-1 receptor): 85%
cAMP release, % activity, 1 µM (human GLP-1 receptor): 94%
cAMP release, % activity, 10 µM (human GLP-1 receptor): 97%
inhibition of cAMP production, 1 nM (human glucagon receptor): 18 pmol/ml/µg prt
inhibition of cAMP production, 10 nM (human glucagon receptor): 16 pmol/ml/µg prt
inhibition of cAMP production, 100 nM (human glucagon receptor): 12 pmol/ml/µg prt
inhibition of cAMP production, 1 µM (human glucagon receptor): 8 pmol/ml/µg prt
inhibition of cAMP production, 10 µM (human glucagon receptor): 6 pmol/ml/µg prt
B3: Seq. ID. No. 194: CH3OCO-H-Aib-QGT-(α-Me-2F-Phe)-TSD-(CH2)-Bip(OMe)-(CH2)-(APPA) (peptide)
peptide: Moc-H[Aib]QGT[αMePhe(2-F)]TSD[Bip(2'-Et-4'-OMe)][hhPhe]
modifications: also: reduced (CH2) bonds between 9-10 and 10-11

cAMP release, % activity, 1 nM (human GLP-1 receptor): 96%
cAMP release, % activity, 10 nM (human GLP-1 receptor): 99%
cAMP release, % activity, 100 nM (human GLP-1 receptor): 99%
cAMP release, % activity, 1 µM (human GLP-1 receptor): 99%
cAMP release, % activity, 10 µM (human GLP-1 receptor): 99%
inhibition of cAMP production, 1 nM (human glucagon receptor): 6 pmol/ml/µg prt
inhibition of cAMP production, 10 nM (human glucagon receptor): 5 pmol/ml/µg prt
inhibition of cAMP production, 100 nM (human glucagon receptor): 2 pmol/ml/µg prt
inhibition of cAMP production, 1 µM (human glucagon receptor): 0 pmol/ml/µg prt
inhibition of cAMP production, 10 µM (human glucagon receptor): 0 pmol/ml/µg prt
B4: Seq. ID. No. 204: H-Aib-(CNB)-G-T(allo)-(α-Me-2F-Phe)-T(allo)-SD-(CH2)-Bip(OMe)-(CH2)-(2F-APPA) (peptide)
peptide: H[Aib][CNB]G[aThr][αMePhe(2-F)][aThr]SD[Bip(2'-Et-4'-OMe)][2F‑APPA]
modifications: reading uncertain; also: reduced (CH2) bonds Z9-Z10 and Z10-Z11

cAMP release, % activity, 1 nM (human GLP-1 receptor): 96%
cAMP release, % activity, 10 nM (human GLP-1 receptor): 99%
cAMP release, % activity, 100 nM (human GLP-1 receptor): 99%
cAMP release, % activity, 1 µM (human GLP-1 receptor): 99%
cAMP release, % activity, 10 µM (human GLP-1 receptor): 99%
inhibition of cAMP production, 1 nM (human glucagon receptor): 20 pmol/ml/µg prt
inhibition of cAMP production, 10 nM (human glucagon receptor): 18 pmol/ml/µg prt
inhibition of cAMP production, 100 nM (human glucagon receptor): 16 pmol/ml/µg prt
inhibition of cAMP production, 1 µM (human glucagon receptor): 14 pmol/ml/µg prt
inhibition of cAMP production, 10 µM (human glucagon receptor): 12 pmol/ml/µg prt
B5: Seq. ID. No. 29: H-Aib-(CNB)-GTFTSD-Bip(OMe)-(APPA) (peptide)
peptide: H[Aib][CNB]GTFTSD[Bip(2'-Et-4'-OMe)][hhPhe]
modifications: reading uncertain

cAMP release, % activity, 1 nM (human GLP-1 receptor): 99%
cAMP release, % activity, 10 nM (human GLP-1 receptor): 99%
cAMP release, % activity, 100 nM (human GLP-1 receptor): 99%
cAMP release, % activity, 1 µM (human GLP-1 receptor): 99%
cAMP release, % activity, 10 µM (human GLP-1 receptor): 99%
inhibition of cAMP production, 1 nM (human glucagon receptor): 19 pmol/ml/µg prt
inhibition of cAMP production, 10 nM (human glucagon receptor): 17 pmol/ml/µg prt
inhibition of cAMP production, 100 nM (human glucagon receptor): 15 pmol/ml/µg prt
inhibition of cAMP production, 1 µM (human glucagon receptor): 14 pmol/ml/µg prt
inhibition of cAMP production, 10 µM (human glucagon receptor): 12 pmol/ml/µg prt
B6: Seq. ID. No. 228: H-Aib-(Hfl)-G-T(allo)-(α-Me-2F-Phe)-T(allo)-SD-Bip(OMe)-(APPA) (peptide)
peptide: H[Aib][Leu(5,5,5,5',5',5'-F6)]G[aThr][αMePhe(2-F)][aThr]SD[Bip(2'-Et-4'-OMe)][hhPhe]

cAMP release, % activity, 1 nM (human GLP-1 receptor): 39%
cAMP release, % activity, 10 nM (human GLP-1 receptor): 80%
cAMP release, % activity, 100 nM (human GLP-1 receptor): 86%
cAMP release, % activity, 1 µM (human GLP-1 receptor): 95%
cAMP release, % activity, 10 µM (human GLP-1 receptor): 98%
inhibition of cAMP production, 1 nM (human glucagon receptor): 0 pmol/ml/µg prt
inhibition of cAMP production, 10 nM (human glucagon receptor): 0 pmol/ml/µg prt
inhibition of cAMP production, 100 nM (human glucagon receptor): 0 pmol/ml/µg prt
inhibition of cAMP production, 1 µM (human glucagon receptor): 0 pmol/ml/µg prt
inhibition of cAMP production, 10 µM (human glucagon receptor): 0 pmol/ml/µg prt
B7: Seq. ID. No. 206: CH3OCO-H-Aib-(CNB)-GT-(α-Me-2F-Phe)-TSD-Bip(OMe)-(APPA) (peptide)
peptide: Moc-H[Aib][CNB]GT[αMePhe(2-F)]TSD[Bip(2'-Et-4'-OMe)][hhPhe]
modifications: reading uncertain

cAMP release, % activity, 1 nM (human GLP-1 receptor): 39%
cAMP release, % activity, 10 nM (human GLP-1 receptor): 80%
cAMP release, % activity, 100 nM (human GLP-1 receptor): 86%
cAMP release, % activity, 1 µM (human GLP-1 receptor): 95%
cAMP release, % activity, 10 µM (human GLP-1 receptor): 98%
inhibition of cAMP production, 1 nM (human glucagon receptor): 0 pmol/ml/µg prt
inhibition of cAMP production, 10 nM (human glucagon receptor): 0 pmol/ml/µg prt
inhibition of cAMP production, 100 nM (human glucagon receptor): 0 pmol/ml/µg prt
inhibition of cAMP production, 1 µM (human glucagon receptor): 0 pmol/ml/µg prt
inhibition of cAMP production, 10 µM (human glucagon receptor): 0 pmol/ml/µg prt
B8: Seq. ID. No. 178: H-Aib-(CNB)-G-T(allo)-(α-Me-2F-Phe)-T(allo)-SD-(C═S)-Bip(OMe)-(C═S)-(APPA) (peptide)
peptide: H[Aib][CNB]G[aThr][αMePhe(2-F)][aThr]SD[Bip(2'-Et-4'-OMe)][hhPhe]
modifications: reading uncertain; also: thioamide bonds between residues 9-10 and 10-11

cAMP release, % activity, 1 nM (human GLP-1 receptor): 51%
cAMP release, % activity, 10 nM (human GLP-1 receptor): 86%
cAMP release, % activity, 100 nM (human GLP-1 receptor): 91%
cAMP release, % activity, 1 µM (human GLP-1 receptor): 99%
cAMP release, % activity, 10 µM (human GLP-1 receptor): 99%
inhibition of cAMP production, 1 nM (human glucagon receptor): 15 pmol/ml/µg prt
inhibition of cAMP production, 10 nM (human glucagon receptor): 12 pmol/ml/µg prt
inhibition of cAMP production, 100 nM (human glucagon receptor): 8 pmol/ml/µg prt
inhibition of cAMP production, 1 µM (human glucagon receptor): 4 pmol/ml/µg prt
inhibition of cAMP production, 10 µM (human glucagon receptor): 2 pmol/ml/µg prt
B9: Seq. ID. No. 45: HSQGTFTSD-Bip(OMe)-(2F-APPA) (peptide)
peptide: HSQGTFTSD[Bip(2'-Et-4'-OMe)][2F‑APPA]
